Assay results reported in US20250326865A1, “C-MET PROTEIN-BINDING PEPTIDE COMPLEX” (PeptiDream Inc., priority 2021, published 2025).
Starred links: 1 amine or outer side, 2 acyl side, 3 side chain; linkers in the order of their positions; H or OH if unused. Positions of bridges follow the written chain, without caps; N, C: chain ends. Non-standard residues stand in square brackets, D forms with d. Residues, ends and D or L forms follow the SMILES beside them. Primed or numbered codes have the meaning given here. Chains are numbered I, II in the order given. No end group written: not given here. CO(CH2CH2O)9CH2CH2CO = O=C(CCOCCOCCOCCOCCOCCOCCOCCOCCOCCC(=O)[*:2])[*:1]; X1 = O=C(OCCOCCOCCOCCOCCOCCOCCOCCOCCOCCOCCOCCOC(=O)[*:2])[*:1]; NMeF = CN[C@@H](Cc1ccccc1)C(=O)O; Ahp(2) = CCCCC[C@H](N)C(=O)O; NMeC = CN[C@@H](CS)C(=O)O; Ahp′ = not defined here

Target: T1, c-Met (Homo sapiens, UniProt P08581)
T1 construct: endogenous in cells; host or cells: A431 (human)
T1 sequence (P08581 25-1390): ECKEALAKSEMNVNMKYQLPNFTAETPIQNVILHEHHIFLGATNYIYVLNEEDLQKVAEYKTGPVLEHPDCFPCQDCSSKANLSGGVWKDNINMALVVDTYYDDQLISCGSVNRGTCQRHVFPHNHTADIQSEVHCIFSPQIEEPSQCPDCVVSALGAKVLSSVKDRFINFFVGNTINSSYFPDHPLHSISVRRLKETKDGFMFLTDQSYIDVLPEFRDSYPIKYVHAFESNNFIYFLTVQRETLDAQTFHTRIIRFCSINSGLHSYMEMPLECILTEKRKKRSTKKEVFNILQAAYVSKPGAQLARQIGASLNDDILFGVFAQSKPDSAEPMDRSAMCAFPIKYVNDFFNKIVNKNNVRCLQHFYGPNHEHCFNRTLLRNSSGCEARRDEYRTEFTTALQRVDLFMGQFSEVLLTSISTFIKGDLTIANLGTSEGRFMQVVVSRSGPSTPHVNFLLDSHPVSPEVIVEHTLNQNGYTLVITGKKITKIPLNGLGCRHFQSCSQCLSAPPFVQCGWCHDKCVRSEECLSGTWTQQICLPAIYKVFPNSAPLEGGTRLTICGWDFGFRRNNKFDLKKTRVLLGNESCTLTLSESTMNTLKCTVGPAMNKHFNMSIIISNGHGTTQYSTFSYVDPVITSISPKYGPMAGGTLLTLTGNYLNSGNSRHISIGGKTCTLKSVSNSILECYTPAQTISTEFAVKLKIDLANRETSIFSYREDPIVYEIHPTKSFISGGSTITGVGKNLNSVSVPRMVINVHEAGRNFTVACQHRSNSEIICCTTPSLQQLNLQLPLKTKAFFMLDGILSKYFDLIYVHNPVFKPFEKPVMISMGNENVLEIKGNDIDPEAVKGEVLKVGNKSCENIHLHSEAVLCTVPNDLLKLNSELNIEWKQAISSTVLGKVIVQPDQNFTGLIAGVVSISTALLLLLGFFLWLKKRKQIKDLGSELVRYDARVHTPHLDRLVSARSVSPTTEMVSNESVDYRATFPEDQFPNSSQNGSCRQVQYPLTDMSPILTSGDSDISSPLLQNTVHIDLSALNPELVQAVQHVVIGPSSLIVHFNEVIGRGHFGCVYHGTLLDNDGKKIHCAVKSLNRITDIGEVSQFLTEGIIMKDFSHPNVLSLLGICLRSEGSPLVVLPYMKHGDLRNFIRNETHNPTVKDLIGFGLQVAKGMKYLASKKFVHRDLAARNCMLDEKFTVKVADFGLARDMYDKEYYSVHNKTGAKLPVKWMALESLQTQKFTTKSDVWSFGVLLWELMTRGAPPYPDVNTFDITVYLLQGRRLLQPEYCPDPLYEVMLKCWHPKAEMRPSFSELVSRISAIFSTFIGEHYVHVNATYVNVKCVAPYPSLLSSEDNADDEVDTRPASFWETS
Test: Phospho-c-Met AlphaLISA assay (c-Met agonist activity) in A431 cells
Assay type: cell-based
Conditions: 15 minutes of stimulation; for EC50: concentration of peptide showing 50% activity of the signal induced by HGF, A431 cells, read-out: C-Met Agonist Activity (C50; nM); for C-Met Agonist Activity (2 or 1): c-Met phosphorylation (Tyr1234/1235) in A431 cells, maximum signal induced by HGF = 100%
Procedure: To evaluate the activation potency (c-Met agonist activity) of c-Met of the peptide complex of the present invention, the phosphorylation of c-Met was verified. Human A431 cells were cultured in DMEM high glucose, GlutaMAX (registered trademark) Supplement, pyruvate (Thermo Fisher Scientific), containing 10% FBS (Gibco). After cells were detached using Accutase (Innovative cell technologies), they were seeded into a 96-well plate at 10000 cells per well and cultured overnight. The next day, for starvation, the culture medium was changed to DMEM high glucose, GlutaMAX (registered trademark) Supplement, pyruvate (Thermo Fisher Scientific), containing 0.1% BSA (Sigma-Aldrich), and the cells were cultured overnight. Then, the peptide complex synthesized in Example 3 or Recombinant Human HGF Protein (R&D systems) as a control was added, and after 15 minutes of stimulation, cells were lysed in a Lysis Buffer provided in the AlphaLISA (registered trademark) SureFire (registered trademark) Ultra™ Phospho-c-Met (Tyr1234/1235) kit (PerkinElmer). The assay was performed according to the kit protocol, and a SpectraMax (registered trademark) Paradigm (registered trademark) multimode microplate reader (Molecular Devices, LLC.) was used for signal detection. […] In the same manner, the C50 value was calculated by GraphPad Prism as the concentration of peptide showing 50% activity of the signal induced by HGF. […] Further, for a complex (GFs_c-Met-00014336-PEG13 dimer; complex no. 49 in Table 4) of a peptide (SEQ ID NO: 34) and a linker (SEQ ID NO: 37), a graph of c-Met agonist activity is shown in FIG. 1.

Compound | EC50 [nM] | C-Met Agonist Activity (2 or 1)
CCCCC[C@@H]1NC(=O)[C@H](CC(=O)O)NC(=O)[C@H](CCC(=O)O)NC(=O)[C@H](CC(=O)O)NC(=O)[C@H](Cc2ccccc2)N(C)C(=O)[C@H](CO)NC(=O)[C@H](C(C)C)NC(=O)[C@H](C)NC(=O)[C@H]([C@@H](C)O)NC(=O)[C@H](Cc2ccccc2)N(C)C(=O)CSC[C@@H](C(=O)NCC(=O)N[C@@H](CCCCNC(=O)OCCOCCOCCOCCOCCOCCOCCOCCOCCOCCOCCOCCOC(=O)NCCCC[C@H](NC(=O)CNC(=O)[C@@H]2CSCC(=O)N(C)[C@@H](Cc3ccccc3)C(=O)N[C@@H]([C@@H](C)O)C(=O)N[C@@H](C)C(=O)N[C@@H](C(C)C)C(=O)N[C@@H](CO)C(=O)N(C)[C@@H](Cc3ccccc3)C(=O)N[C@@H](CC(=O)O)C(=O)N[C@@H](CCC(=O)O)C(=O)N[C@@H](CC(=O)O)C(=O)N[C@@H](CCCCC)C(=O)N3CCC[C@H]3C(=O)N[C@@H](CCCNC(=N)N)C(=O)N[C@@H](Cc3c[nH]c4ccccc34)C(=O)N[C@@H](CO)C(=O)N2C)C(N)=O)C(N)=O)N(C)C(=O)[C@H](CO)NC(=O)[C@H](Cc2c[nH]c3ccccc23)NC(=O)[C@H](CCCNC(=N)N)NC(=O)[C@@H]2CCCN2C1=O [Peptide 49] (I: {CH2CO}-[NMeF]TAVS[NMeF]DED[Ahp(2)]PRWS[NMeC]GK-NH2 / II: {CH2CO}-[NMeF]TAVS[NMeF]DED[Ahp(2)]PRWS[NMeC]GK-NH2; linker I:17-II:17 via X1 (inferred); thioether I:N-I:15, II:N-II:15 (inferred); C-terminus assumed) | 0.67 | –
9 ([NMeF]VYVS[NMeF]DDDSPRWS[NMeC]; also: conjugated moiety via linker, site not given here) [Peptide 9] | – | 2 (those showing more than 50% activation were described as 2)
1 ({CH2CO}-[NMeF]VYVS[NMeF]DDD[Ahp′]PRWS[NMeC]; thioether N-15 (inferred); not fully specified; reading uncertain; also: conjugated moiety via linker) [Peptide 1] | – | 2 (those showing more than 50% activation were described as 2)
CCCCC[C@@H]1NC(=O)[C@H](CC(=O)O)NC(=O)[C@@H]2CCCN2C(=O)[C@H](CC(=O)O)NC(=O)[C@H](Cc2ccccc2)N(C)C(=O)[C@H](CO)NC(=O)[C@H](C(C)C)NC(=O)[C@H](C)NC(=O)[C@H](CCC(=O)O)NC(=O)[C@H](Cc2ccccc2)N(C)C(=O)CSC[C@@H](C(=O)NCC(=O)N[C@@H](CCCCNC(=O)CCOCCOCCOCCOCCOCCOCCOCCOCCOCCC(=O)NCCCC[C@H](NC(=O)CNC(=O)[C@@H]2CSCC(=O)N(C)[C@@H](Cc3ccccc3)C(=O)N[C@@H](CCC(=O)O)C(=O)N[C@@H](C)C(=O)N[C@@H](C(C)C)C(=O)N[C@@H](CO)C(=O)N(C)[C@@H](Cc3ccccc3)C(=O)N[C@@H](CC(=O)O)C(=O)N3CCC[C@H]3C(=O)N[C@@H](CC(=O)O)C(=O)N[C@@H](CCCCC)C(=O)N3CCC[C@H]3C(=O)N[C@@H](CCCNC(=N)N)C(=O)N[C@@H](Cc3c[nH]c4ccccc34)C(=O)N[C@@H](CO)C(=O)N2C)C(N)=O)C(N)=O)N(C)C(=O)[C@H](CO)NC(=O)[C@H](Cc2c[nH]c3ccccc23)NC(=O)[C@H](CCCNC(=N)N)NC(=O)[C@@H]2CCCN2C1=O [Peptide 30] (I: {CH2CO}-[NMeF]EAVS[NMeF]DPD[Ahp(2)]PRWS[NMeC]GK-NH2 / II: {CH2CO}-[NMeF]EAVS[NMeF]DPD[Ahp(2)]PRWS[NMeC]GK-NH2; linker I:17-II:17 via CO(CH2CH2O)9CH2CH2CO (inferred); thioether I:N-I:15, II:N-II:15 (inferred)) | 0.81 | –
10 ({CH2CO}-[NMeF]VYVS[NMeF]DDD[Ahp′]PSWS[NMeC]; thioether N-15 (inferred); not fully specified; reading uncertain; also: conjugated moiety via linker) [Peptide 10] | – | 1 (those showing less than 50% activation as 1)
6 ([NMeF]VDVS[NMeF]DDD[Ahp′]PRWS[NMeC]; not fully specified; reading uncertain) [Peptide 6] | – | 2 (those showing more than 50% activation were described as 2)
3 ({CH2CO}-FVYVS[NMeF]DDD[Ahp′]PRWS[NMeC]; thioether N-15 (inferred); not fully specified; reading uncertain; also: conjugated moiety via linker) [Peptide 3] | – | 1 (those showing less than 50% activation as 1)
16 ({CH2CO}-[NMeF]VAVS[NMeF]DDD[Ahp′]PRWS[NMeC]; thioether N-15 (inferred); not fully specified; reading uncertain; also: conjugated moiety via linker) [Peptide 16] | – | 1 (those showing less than 50% activation as 1)
13 ({CH2CO}-[NMeF]VYVS[NMeF]DDD[Ahp′]PRWH[NMeC]; thioether N-15 (inferred); not fully specified; reading uncertain; also: conjugated moiety via linker) [Peptide 13] | – | 2 (those showing more than 50% activation were described as 2)
12 ({CH2CO}-[NMeF]VYVS[NMeF]DDD[Ahp′]PRWD[NMeC]; thioether N-15 (inferred); not fully specified; reading uncertain; also: conjugated moiety via linker) [Peptide 12] | – | 2 (those showing more than 50% activation were described as 2)
5 ([NMeF]WYVS[NMeF]DDD[Ahp′]PRWS[NMeC]; not fully specified; reading uncertain) [Peptide 5] | – | 2 (those showing more than 50% activation were described as 2)
CCCCC[C@@H]1NC(=O)[C@H](CC(=O)O)NC(=O)[C@@H]2CCCN2C(=O)[C@H](CC(=O)O)NC(=O)[C@H](Cc2ccccc2)N(C)C(=O)[C@H](CO)NC(=O)[C@H](C(C)C)NC(=O)[C@H](C)NC(=O)[C@H]([C@@H](C)O)NC(=O)[C@H](Cc2ccccc2)N(C)C(=O)CSC[C@@H](C(=O)NCC(=O)N[C@@H](CCCCNC(=O)CCOCCOCCOCCOCCOCCOCCOCCOCCOCCC(=O)NCCCC[C@H](NC(=O)CNC(=O)[C@@H]2CSCC(=O)N(C)[C@@H](Cc3ccccc3)C(=O)N[C@@H]([C@@H](C)O)C(=O)N[C@@H](C)C(=O)N[C@@H](C(C)C)C(=O)N[C@@H](CO)C(=O)N(C)[C@@H](Cc3ccccc3)C(=O)N[C@@H](CC(=O)O)C(=O)N3CCC[C@H]3C(=O)N[C@@H](CC(=O)O)C(=O)N[C@@H](CCCCC)C(=O)N3CCC[C@H]3C(=O)N[C@@H](CCCNC(=N)N)C(=O)N[C@@H](Cc3c[nH]c4ccccc34)C(=O)N[C@@H](C)C(=O)N2C)C(N)=O)C(N)=O)N(C)C(=O)[C@H](C)NC(=O)[C@H](Cc2c[nH]c3ccccc23)NC(=O)[C@H](CCCNC(=N)N)NC(=O)[C@@H]2CCCN2C1=O [Peptide 46] (I: {CH2CO}-[NMeF]TAVS[NMeF]DPD[Ahp(2)]PRWA[NMeC]GK-NH2 / II: {CH2CO}-[NMeF]TAVS[NMeF]DPD[Ahp(2)]PRWA[NMeC]GK-NH2; linker I:17-II:17 via CO(CH2CH2O)9CH2CH2CO (inferred); thioether I:N-I:15, II:N-II:15 (inferred)) | 0.67 | –
14 ({CH2CO}-[NMeF]VYVS[NMeF]DDD[Ahp′]PRWQ[NMeC]; thioether N-15 (inferred); not fully specified; reading uncertain; also: conjugated moiety via linker) [Peptide 14] | – | 2 (those showing more than 50% activation were described as 2)
CCCCC[C@@H]1NC(=O)[C@H](CC(=O)O)NC(=O)[C@H](CO)NC(=O)[C@H](CC(=O)O)NC(=O)[C@H](Cc2ccccc2)N(C)C(=O)[C@H](CO)NC(=O)[C@H](C(C)C)NC(=O)[C@H](C)NC(=O)[C@H]([C@@H](C)O)NC(=O)[C@H](Cc2ccccc2)N(C)C(=O)CSC[C@@H](C(=O)NCC(=O)N[C@@H](CCCCNC(=O)CCOCCOCCOCCOCCOCCOCCOCCOCCOCCC(=O)NCCCC[C@H](NC(=O)CNC(=O)[C@@H]2CSCC(=O)N(C)[C@@H](Cc3ccccc3)C(=O)N[C@@H]([C@@H](C)O)C(=O)N[C@@H](C)C(=O)N[C@@H](C(C)C)C(=O)N[C@@H](CO)C(=O)N(C)[C@@H](Cc3ccccc3)C(=O)N[C@@H](CC(=O)O)C(=O)N[C@@H](CO)C(=O)N[C@@H](CC(=O)O)C(=O)N[C@@H](CCCCC)C(=O)N3CCC[C@H]3C(=O)N[C@@H](CCCNC(=N)N)C(=O)N[C@@H](Cc3c[nH]c4ccccc34)C(=O)N[C@@H](C)C(=O)N2C)C(N)=O)C(N)=O)N(C)C(=O)[C@H](C)NC(=O)[C@H](Cc2c[nH]c3ccccc23)NC(=O)[C@H](CCCNC(=N)N)NC(=O)[C@@H]2CCCN2C1=O [Peptide 44] (I: {CH2CO}-[NMeF]TAVS[NMeF]DSD[Ahp(2)]PRWA[NMeC]GK-NH2 / II: {CH2CO}-[NMeF]TAVS[NMeF]DSD[Ahp(2)]PRWA[NMeC]GK-NH2; linker I:17-II:17 via CO(CH2CH2O)9CH2CH2CO (inferred); thioether I:N-I:15, II:N-II:15 (inferred)) | 0.33 | –
